Assay results: article PMC9482650, “Quantitative fragmentomics allow affinity mapping of interactomes” (Nature Communications, 2022)

T1: TJP3_3, O95049
T1 sequence (O95049 375-456, limits assumed, looked up): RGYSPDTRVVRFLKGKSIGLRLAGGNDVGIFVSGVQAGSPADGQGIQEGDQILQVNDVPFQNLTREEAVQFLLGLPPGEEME

T2: SHANK1, Q9Y566
T2 sequence (Q9Y566 658-767, limits assumed, looked up): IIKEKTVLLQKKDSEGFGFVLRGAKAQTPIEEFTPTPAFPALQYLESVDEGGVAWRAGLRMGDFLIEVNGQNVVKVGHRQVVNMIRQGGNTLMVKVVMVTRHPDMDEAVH

T3: SNTB1, Q13884
T3 sequence (Q13884 107-205, limits assumed, looked up): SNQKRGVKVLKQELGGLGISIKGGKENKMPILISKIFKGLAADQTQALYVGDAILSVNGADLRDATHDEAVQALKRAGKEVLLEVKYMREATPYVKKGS

T4: SYNJ2BP, P57105
T4 sequence (P57105 8-110, limits assumed, looked up): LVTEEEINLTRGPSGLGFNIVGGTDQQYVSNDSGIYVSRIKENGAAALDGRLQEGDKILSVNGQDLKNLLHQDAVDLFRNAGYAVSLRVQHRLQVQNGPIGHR

T5: APBA2_2, Q99767
T5 sequence (Q99767 654-744, limits assumed, looked up): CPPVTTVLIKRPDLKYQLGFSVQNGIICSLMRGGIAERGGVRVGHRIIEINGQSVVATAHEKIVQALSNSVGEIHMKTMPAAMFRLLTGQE

T6: CARD11, Q9BXL7
T6 sequence (Q9BXL7 662-765, limits assumed, looked up): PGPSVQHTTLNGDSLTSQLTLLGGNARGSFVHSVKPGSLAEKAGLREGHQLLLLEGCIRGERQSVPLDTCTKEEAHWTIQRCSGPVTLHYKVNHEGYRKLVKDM

T7: APBA3_1, O96018
T7 sequence (O96018 389-490, limits assumed, looked up): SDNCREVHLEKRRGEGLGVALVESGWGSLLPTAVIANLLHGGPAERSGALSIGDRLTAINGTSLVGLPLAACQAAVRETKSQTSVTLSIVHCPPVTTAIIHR

T8: DLG3_1, Q92796
T8 sequence (Q92796 125-227, limits assumed, looked up): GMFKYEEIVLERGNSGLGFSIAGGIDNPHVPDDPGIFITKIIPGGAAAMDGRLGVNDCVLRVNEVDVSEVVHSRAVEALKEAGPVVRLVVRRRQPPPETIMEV

T9: SNTA1, Q13424
T9 sequence (Q13424 82-180, limits assumed, looked up): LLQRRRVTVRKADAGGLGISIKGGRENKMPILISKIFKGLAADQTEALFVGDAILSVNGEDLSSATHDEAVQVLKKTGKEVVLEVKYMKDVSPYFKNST

T10: DVL3, Q92997
T10 sequence (Q92997 244-331, limits assumed, looked up): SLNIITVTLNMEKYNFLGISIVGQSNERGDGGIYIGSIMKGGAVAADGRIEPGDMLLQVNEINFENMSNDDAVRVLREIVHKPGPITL

T11: SIPA1L2, Q9P2F8
T11 sequence (Q9P2F8 945-1036, limits assumed, looked up): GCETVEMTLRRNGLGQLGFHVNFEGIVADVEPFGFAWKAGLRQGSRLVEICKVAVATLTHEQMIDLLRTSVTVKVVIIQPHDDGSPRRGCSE

T12: GRIP1_5, Q9Y3R0
T12 sequence (Q9Y3R0 568-668, limits assumed, looked up): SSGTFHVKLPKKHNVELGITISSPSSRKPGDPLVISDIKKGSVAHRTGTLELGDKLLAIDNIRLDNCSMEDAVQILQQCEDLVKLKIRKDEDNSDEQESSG

T13: PDZD7_3, Q9H5P4
T13 sequence (Q9H5P4 857-944, limits assumed, looked up): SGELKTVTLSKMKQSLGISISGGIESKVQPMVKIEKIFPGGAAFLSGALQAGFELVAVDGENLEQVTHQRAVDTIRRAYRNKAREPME


biological target: MAST1, Q9Y2H9; experiment: holdup assay; parameters: key: below the threshold = too weak to quantify, mostly under pKd 3.1 to 4; details: plain residues with an end cap or a label only (N-terminal biotin on a linker: ado-ado)
Sequence (Q9Y2H9 962-1065): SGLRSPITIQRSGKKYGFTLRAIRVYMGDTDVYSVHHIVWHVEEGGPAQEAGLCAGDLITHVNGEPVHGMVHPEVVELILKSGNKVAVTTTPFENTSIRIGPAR

pKd | Binder
4.3 | VNKSKLLTDV [KCNA1, Q09470]
3.9 | TPPAAKKSRI [BAZ1A, Q9NRL2]

biological target: GRID2IP_2, A4D2P6; experiment: holdup assay; parameters: key: below the threshold = too weak to quantify, mostly under pKd 3.1 to 4; details: plain residues with an end cap or a label only (N-terminal biotin on a linker: ado-ado)
Sequence (A4D2P6 272-370): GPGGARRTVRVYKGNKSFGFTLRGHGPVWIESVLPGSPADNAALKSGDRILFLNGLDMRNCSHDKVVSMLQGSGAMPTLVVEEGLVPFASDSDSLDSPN

pKd | Binder
3.71 | VNKSKLLTDV [KCNA1, Q09470]
4.42 | TPPAAKKSRI [BAZ1A, Q9NRL2]

biological target: T1, TJP3_3, O95049; experiment: holdup assay; parameters: key: below the threshold = too weak to quantify, mostly under pKd 3.1 to 4; details: plain residues with an end cap or a label only (N-terminal biotin on a linker: ado-ado)

pKd | Binder
below the threshold | VNKSKLLTDV [KCNA1, Q09470]
below the threshold | TPPAAKKSRI [BAZ1A, Q9NRL2]

biological target: T2, SHANK1, Q9Y566; experiment: holdup assay; parameters: key: below the threshold = too weak to quantify, mostly under pKd 3.1 to 4; details: plain residues with an end cap or a label only (N-terminal biotin on a linker: ado-ado)

pKd | Binder
below the threshold | VNKSKLLTDV [KCNA1, Q09470]
3.53 | TPPAAKKSRI [BAZ1A, Q9NRL2]

biological target: T3, SNTB1, Q13884; experiment: holdup assay; parameters: key: below the threshold = too weak to quantify, mostly under pKd 3.1 to 4; details: plain residues with an end cap or a label only (N-terminal biotin on a linker: ado-ado)

pKd | Binder
below the threshold | VNKSKLLTDV [KCNA1, Q09470]
below the threshold | TPPAAKKSRI [BAZ1A, Q9NRL2]

biological target: T4, SYNJ2BP, P57105; experiment: holdup assay; parameters: key: below the threshold = too weak to quantify, mostly under pKd 3.1 to 4; details: plain residues with an end cap or a label only (N-terminal biotin on a linker: ado-ado)

pKd | Binder
3.72 | VNKSKLLTDV [KCNA1, Q09470]
below the threshold | TPPAAKKSRI [BAZ1A, Q9NRL2]

biological target: Inadl_4, Q8NI35; experiment: holdup assay; parameters: key: below the threshold = too weak to quantify, mostly under pKd 3.1 to 4; details: plain residues with an end cap or a label only (N-terminal biotin on a linker: ado-ado)
Sequence (Q8NI35 547-651): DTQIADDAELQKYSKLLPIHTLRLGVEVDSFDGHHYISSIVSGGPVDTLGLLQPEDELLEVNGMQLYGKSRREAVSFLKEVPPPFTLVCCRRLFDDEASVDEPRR

pKd | Binder
below the threshold | VNKSKLLTDV [KCNA1, Q09470]
below the threshold | TPPAAKKSRI [BAZ1A, Q9NRL2]

biological target: Inadl_6, Q8NI35; experiment: holdup assay; parameters: key: below the threshold = too weak to quantify, mostly under pKd 3.1 to 4; details: plain residues with an end cap or a label only (N-terminal biotin on a linker: ado-ado)
Sequence (Q8NI35 1058-1167): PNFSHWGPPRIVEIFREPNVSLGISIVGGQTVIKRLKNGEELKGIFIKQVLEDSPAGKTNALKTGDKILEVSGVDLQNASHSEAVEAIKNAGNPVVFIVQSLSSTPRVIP

pKd | Binder
below the threshold | VNKSKLLTDV [KCNA1, Q09470]
below the threshold | TPPAAKKSRI [BAZ1A, Q9NRL2]

biological target: DLG5_1, Q8TDM6; experiment: holdup assay; parameters: key: below the threshold = too weak to quantify, mostly under pKd 3.1 to 4; details: plain residues with an end cap or a label only (N-terminal biotin on a linker: ado-ado)
Sequence (Q8TDM6 617-713): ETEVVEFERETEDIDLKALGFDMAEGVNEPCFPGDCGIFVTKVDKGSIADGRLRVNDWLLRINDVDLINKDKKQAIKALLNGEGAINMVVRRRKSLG

pKd | Binder
below the threshold | VNKSKLLTDV [KCNA1, Q09470]
3.57 | TPPAAKKSRI [BAZ1A, Q9NRL2]

biological target: T5, APBA2_2, Q99767; experiment: holdup assay; parameters: key: below the threshold = too weak to quantify, mostly under pKd 3.1 to 4; details: plain residues with an end cap or a label only (N-terminal biotin on a linker: ado-ado)

pKd | Binder
below the threshold | VNKSKLLTDV [KCNA1, Q09470]
below the threshold | TPPAAKKSRI [BAZ1A, Q9NRL2]

biological target: GRIP2_4, Q9C0E4; experiment: holdup assay; parameters: key: below the threshold = too weak to quantify, mostly under pKd 3.1 to 4; details: plain residues with an end cap or a label only (N-terminal biotin on a linker: ado-ado)
Sequence (Q9C0E4 446-548): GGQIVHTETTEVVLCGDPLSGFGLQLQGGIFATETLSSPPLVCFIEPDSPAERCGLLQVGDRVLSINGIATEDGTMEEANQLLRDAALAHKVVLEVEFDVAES

pKd | Binder
below the threshold | VNKSKLLTDV [KCNA1, Q09470]
below the threshold | TPPAAKKSRI [BAZ1A, Q9NRL2]

biological target: T6, CARD11, Q9BXL7; experiment: holdup assay; parameters: key: below the threshold = too weak to quantify, mostly under pKd 3.1 to 4; details: plain residues with an end cap or a label only (N-terminal biotin on a linker: ado-ado)

pKd | Binder
below the threshold | VNKSKLLTDV [KCNA1, Q09470]
below the threshold | TPPAAKKSRI [BAZ1A, Q9NRL2]

biological target: T7, APBA3_1, O96018; experiment: holdup assay; parameters: key: below the threshold = too weak to quantify, mostly under pKd 3.1 to 4; details: plain residues with an end cap or a label only (N-terminal biotin on a linker: ado-ado)

pKd | Binder
below the threshold | VNKSKLLTDV [KCNA1, Q09470]
below the threshold | TPPAAKKSRI [BAZ1A, Q9NRL2]

biological target: DLG1_1, Q12959; experiment: holdup assay; parameters: key: below the threshold = too weak to quantify, mostly under pKd 3.1 to 4; details: plain residues with an end cap or a label only (N-terminal biotin on a linker: ado-ado)

pKd | Binder
4.11 | VNKSKLLTDV [KCNA1, Q09470]
below the threshold | TPPAAKKSRI [BAZ1A, Q9NRL2]

biological target: MAGI2_5, Q86UL8; experiment: holdup assay; parameters: key: below the threshold = too weak to quantify, mostly under pKd 3.1 to 4; details: plain residues with an end cap or a label only (N-terminal biotin on a linker: ado-ado)
Sequence (Q86UL8 915-1017): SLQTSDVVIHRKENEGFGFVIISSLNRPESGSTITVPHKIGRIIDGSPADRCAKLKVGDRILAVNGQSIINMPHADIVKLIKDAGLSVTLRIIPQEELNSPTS

pKd | Binder
below the threshold | VNKSKLLTDV [KCNA1, Q09470]
below the threshold | TPPAAKKSRI [BAZ1A, Q9NRL2]

biological target: PDLIM1, O00151; experiment: holdup assay; parameters: key: below the threshold = too weak to quantify, mostly under pKd 3.1 to 4; details: plain residues with an end cap or a label only (N-terminal biotin on a linker: ado-ado)
Sequence (O00151 1-87): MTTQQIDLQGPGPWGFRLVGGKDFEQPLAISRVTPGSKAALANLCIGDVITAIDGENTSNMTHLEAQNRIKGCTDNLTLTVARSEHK

pKd | Binder
below the threshold | VNKSKLLTDV [KCNA1, Q09470]
below the threshold | TPPAAKKSRI [BAZ1A, Q9NRL2]

biological target: T8, DLG3_1, Q92796; experiment: holdup assay; parameters: key: below the threshold = too weak to quantify, mostly under pKd 3.1 to 4; details: plain residues with an end cap or a label only (N-terminal biotin on a linker: ado-ado)

pKd | Binder
3.66 | VNKSKLLTDV [KCNA1, Q09470]
3.53 | TPPAAKKSRI [BAZ1A, Q9NRL2]

biological target: T9, SNTA1, Q13424; experiment: holdup assay; parameters: key: below the threshold = too weak to quantify, mostly under pKd 3.1 to 4; details: plain residues with an end cap or a label only (N-terminal biotin on a linker: ado-ado)

pKd | Binder
below the threshold | VNKSKLLTDV [KCNA1, Q09470]
below the threshold | TPPAAKKSRI [BAZ1A, Q9NRL2]

biological target: SCRIB_2, Q14160; experiment: holdup assay; parameters: key: below the threshold = too weak to quantify, mostly under pKd 3.1 to 4; details: plain residues with an end cap or a label only (N-terminal biotin on a linker: ado-ado)
Sequence (Q14160 857-960): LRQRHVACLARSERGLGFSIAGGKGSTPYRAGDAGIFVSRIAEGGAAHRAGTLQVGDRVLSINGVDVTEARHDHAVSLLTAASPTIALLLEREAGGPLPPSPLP

pKd | Binder
below the threshold | VNKSKLLTDV [KCNA1, Q09470]
below the threshold | TPPAAKKSRI [BAZ1A, Q9NRL2]

biological target: HTRA1, Q92743; experiment: holdup assay; parameters: key: below the threshold = too weak to quantify, mostly under pKd 3.1 to 4; details: plain residues with an end cap or a label only (N-terminal biotin on a linker: ado-ado)
Sequence (Q92743 360-477): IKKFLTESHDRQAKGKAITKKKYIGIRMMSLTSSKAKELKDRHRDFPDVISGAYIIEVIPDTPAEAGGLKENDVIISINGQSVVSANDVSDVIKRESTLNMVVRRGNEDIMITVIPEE

pKd | Binder
below the threshold | VNKSKLLTDV [KCNA1, Q09470]
below the threshold | TPPAAKKSRI [BAZ1A, Q9NRL2]

biological target: T10, DVL3, Q92997; experiment: holdup assay; parameters: key: below the threshold = too weak to quantify, mostly under pKd 3.1 to 4; details: plain residues with an end cap or a label only (N-terminal biotin on a linker: ado-ado)

pKd | Binder
below the threshold | VNKSKLLTDV [KCNA1, Q09470]
below the threshold | TPPAAKKSRI [BAZ1A, Q9NRL2]

biological target: MAGI2_6, Q86UL8; experiment: holdup assay; parameters: key: below the threshold = too weak to quantify, mostly under pKd 3.1 to 4; details: plain residues with an end cap or a label only (N-terminal biotin on a linker: ado-ado)
Sequence (Q86UL8 1141-1229): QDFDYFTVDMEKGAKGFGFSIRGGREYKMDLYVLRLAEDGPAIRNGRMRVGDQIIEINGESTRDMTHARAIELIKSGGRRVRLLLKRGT

pKd | Binder
3.88 | VNKSKLLTDV [KCNA1, Q09470]
below the threshold | TPPAAKKSRI [BAZ1A, Q9NRL2]

biological target: T11, SIPA1L2, Q9P2F8; experiment: holdup assay; parameters: key: below the threshold = too weak to quantify, mostly under pKd 3.1 to 4; details: plain residues with an end cap or a label only (N-terminal biotin on a linker: ado-ado)

pKd | Binder
below the threshold | VNKSKLLTDV [KCNA1, Q09470]
below the threshold | TPPAAKKSRI [BAZ1A, Q9NRL2]

biological target: T12, GRIP1_5, Q9Y3R0; experiment: holdup assay; parameters: key: below the threshold = too weak to quantify, mostly under pKd 3.1 to 4; details: plain residues with an end cap or a label only (N-terminal biotin on a linker: ado-ado)

pKd | Binder
below the threshold | VNKSKLLTDV [KCNA1, Q09470]
below the threshold | TPPAAKKSRI [BAZ1A, Q9NRL2]

biological target: T13, PDZD7_3, Q9H5P4; experiment: holdup assay; parameters: key: below the threshold = too weak to quantify, mostly under pKd 3.1 to 4; details: plain residues with an end cap or a label only (N-terminal biotin on a linker: ado-ado)

pKd | Binder
4.36 | VNKSKLLTDV [KCNA1, Q09470]
4.52 | TPPAAKKSRI [BAZ1A, Q9NRL2]
